In paper PMC5993831 (2018):

Target: PD-L1 (Mus musculus, UniProt Q9EP73)
Sequence (Q9EP73 19-239): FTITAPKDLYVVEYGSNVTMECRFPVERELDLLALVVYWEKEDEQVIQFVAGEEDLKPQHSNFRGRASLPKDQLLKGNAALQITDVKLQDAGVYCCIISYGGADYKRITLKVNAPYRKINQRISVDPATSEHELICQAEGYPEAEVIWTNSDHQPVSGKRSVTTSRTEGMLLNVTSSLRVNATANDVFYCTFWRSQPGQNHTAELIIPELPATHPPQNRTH

- Kd: 0.219 nM
B1: PD-L1 trap (trimeric PD-1 ECD fused to CMP1 trimerization domain) 21-150 (protein)
chain: SGWLLEVPNGPWRSLTFYPAWLTVSEGANATFTCSLSNWSEDLMLNWNRLSPSNQTEKQAAFCNGLSQPVQDARFQIIQLPNRHDFHMNILDTRRNDSGIYLCGAISLHPKAKIEESPGAELVVTERILE
modifications: trimeric fusion with mouse CMP1 residues 458-500 via hinge linker, His6 tag
